{"source": "paper PMC6795539", "about": "(Nature medicine, 2019)", "binders": {"B1": {"name": "NZM-mFc, variant of NZM in which the human Fc was replaced with the murine counterpart (antibody, V domains shown)", "VH": "QVQLVQSGAEVKKPGASVKVSCKASGFNIKDTYIHWVRQAPGQRLEWMGRIDPANGYTKYDPKFQGRVTITADTSASTAYMELSSLRSEDTAVYYCAREGYYGNYGVYAMDYWGQGTLVTVSS", "VL": "DIQMTQSPSSLSASVGDRVTITCKTSQDINKYMAWYQQTPGKAPRLLIHYTSALQPGIPSRFSGSGSGRDYTFTISSLQPEDIATYYCLQYDNLWTFGQGTKVEIK"}, "B2": {"name": "NZM variant var4 (light chain CDR2 modified), full human IgG4 (antibody, V domains shown)", "VH": "B1 VH", "VL": "B1 VL with S52K, A53S, L54N, P56S"}, "B3": {"name": "Natalizumab (NZM), humanized monoclonal IgG4 antibody to α4 integrins (antibody, V domains shown)", "VH": "B1 VH", "VL": "B1 VL"}, "B4": {"name": "NZM variant var2 (light chain CDR2 modified), full human IgG4 (antibody, V domains shown)", "VH": "B1 VH", "VL": "B1 VL with S52K, A53G, L54N, P56S"}, "B5": {"name": "NZM variant var1 (light chain CDR2 modified), full human IgG4 (antibody, V domains shown)", "VH": "B1 VH", "VL": "B1 VL with S52K, A53G, L54N"}, "B6": {"name": "NZM variant var3 (light chain CDR2 modified), full human IgG4 (antibody, V domains shown)", "VH": "B1 VH", "VL": "B1 VL with S52K, A53S, L54N"}}, "key": {"[1]": {"target": "T1, α4 integrin on the surface of T cells (Homo sapiens, UniProt P13612)", "assay": "flow cytometry on cells"}, "[2]": {"target": "T1, α4 integrin on the surface of T cells", "assay": "flow cytometry on cells", "remark": "listed apart in the source"}}, "note": "Changes are numbered by the printed parent chain. Where two headings read alike, the source gives them in different places.", "data": [{"binder": "B1", "values": [{"measurement": "binding result", "setting": "[1]", "value": "binds"}]}, {"binder": "B2", "values": [{"measurement": "binding result", "setting": "[2]", "value": "binds"}]}, {"binder": "B3", "values": [{"measurement": "binding result", "setting": "[2]", "value": "binds"}]}, {"binder": "B4", "values": [{"measurement": "binding result", "setting": "[2]", "value": "binds"}]}, {"binder": "B5", "values": [{"measurement": "binding result", "setting": "[2]", "value": "binds"}]}, {"binder": "B6", "values": [{"measurement": "binding result", "setting": "[2]", "value": "binds"}]}]}
